Measured values as given in paper PMC3857803.

Molecular target: anti-METH single chain antibody fragment scFv6H4
Test: crystal structure; apo scFv6H4, hanging drop; protein 14 mg/ml in 5 mM HEPES, 100 mM NaCl, 1 mM NaN3, pH 8.0; reservoir 1.6 M ammonium sulfate, 240 mM imidazole malate, pH 8.0; space group P2(1)3, one molecule in the asymmetric unit; trimer formed by the crystallographic 3-fold axis, with a Ni2+ ion and a sulfate on the axis

- stoichiometry N: 3
B1: anti-METH single chain antibody fragment scFv6H4 (scFv, V domains shown)
VH: EVQLQESGPSLVKPSQTLSLTCSVTGDSVTSGYWSWIRQFPGNKLDYMGYISYRGSTYYNPSLKSRISITRDTSKNQVYLQLKSVSSEDTATYYCSYFDSDDYAMEYWGQGTSVTVSG
VL: QIVLTQSPAIMSASPGEKVTLTCSASSSVSSSHLYWYQQKPGSSPKLWIYSTSNLASGVPARFSGSGSGTSYSLTISSMEAEDAASYFCHQWSSFPFTFGSGTKLEIK
